For two proteins, Km and kcat results are on record in PMC6050298, “Highly active enzymes by automated combinatorial backbone assembly and sequence design” (Nature Communications, 2018).

Substrate in series [1]: O=[N+]([O-])c1ccc(O[C@@H]2OC[C@@H](O[C@@H]3OC[C@@H](O)[C@H](O)[C@H]3O)[C@H](O)[C@H]2O)cc1
Briefly: purified protein. In kind it is biochemical, Geobacillus stearothermophilus. As to conditions: 37 °C, 50 mM Tris pH 6.5, 150 mM NaCl, MBP fusion.

Substrate in series [2]: O=[N+]([O-])c1ccc(O[C@@H]2OC[C@@H](O[C@@H]3OC[C@@H](O)[C@H](O)[C@H]3O)[C@H](O)[C@H]2O)cc1
The experiment in a line: purified protein. The conditions noted are these: 37 °C, 50 mM Tris pH 6.5, 150 mM NaCl, MBP fusion. Format: biochemical, synthetic construct.

B1: Xylanase from Geobacillus stearothermophilus (PDB ID: 4PUD) (Geobacillus stearothermophilus) (protein)
chain: KPHISALNAPQLDQRYKNEFTIGAAVEPYQLQNEKDVQMLKRHFNSIVAENVMKPISIQPEEGKFNFEQADRIVKFAKANGMDIRFHTLVWHSQVPQWFFLDKEGKPMVNETDPVKREQNKQLLLKRLETHIKTIVERYKDDIKYWDVVNEVVGDDGKLRNSPWYQIAGIDYIKVAFQAARKYGGDNIKLYMNDYNTEVEPKRTALYNLVKQLKEEGVPIDGIGHQSHIQIGWPSEAEIEKTINMFAALGLDNQITELDVSMYGWPPRAYPTYDAIPKQKFLDQAARYDRLFKLYEKLSDKISNVTFWGIADNHTWLDSRADVYYDANGNVVVDPNAPYAKVEKGKGKDAPFVFGPDYKVKPAYWAIIDHK
notes: synthetic codon-optimised gene, N-terminal His6-MBP fusion kept in assay, E. coli BL21 DE3; monomer; 4PUD names the template structure
What is called Km is the substrate concentration at which the rate is half of its maximum. In general, kcat refers to the maximal rate divided by the concentration of active sites. For B1, in the series “purified protein [1]”, the Km is 160 ± 20 µM and the kcat came to 6.47 ± 0.04 s⁻¹.

B2: xyl3.1 (synthetic construct) (protein)
chain: TIGSEFKPHISALNAPSLAQRYKDYFYIGAAVEPYQTTKEKDAKMLQRHFNMIVAENAMKPAALEPTEGNFQWADADRIVQFAKENGMELRFHTLVWHNQTPDWFFLDREGKPMVEETDPQKREENRELLLQRLENHIRAVVLRYKDDIKNWDVVNEVVEPNDPGGMRNSPWYQITGTEYIEVAFRAAREAGGEDIKLYMNDYNTEQEPKREYIYRLIKKLLEKGVPIDGVGHQAHVTIDRPPVDEIKKTIQRFADLGLDNQITELDVSLYGWPPRPAYPTYDAIPEERFQAQADRYRQLFELFEELKDHISAVTFWGIADNHTWLDDRAREYNDGVGKDAPFVFDPNYRVKPAYWAIINHK
notes: computational design (105 mutations to nearest natural protein), N-terminal His6-MBP fusion kept in assay
Consider B2, for which, in “purified protein [2]”, the Km amounted to 1820 ± 600 µM and the kcat came out at 17 ± 5 s⁻¹.
